B1: scFv; the commonest letter at each place (parent)
chain 1: EVKLDETGGGLVQPGRPMKLSCVASGFTFSDYWMNWVRQSPEKGLEWVAQIRNKPYNYETYYSDSVKGRFTISRDDSKSSVYLQMNNLRVEDMGIYYCTGSYYGMDYWGQGTSVTVS
chain 2: DVVMTQTPLSLPVSLGDQASISCRSSQSLVHSNGNTYLRWYLQKPGQSPKVLIYKVSNRFSGVPDRFSGSGSGTDFTLKISRVEAEDLGVYFCSQSTHVPWTFGGGTKLEIK

Tests used:
[1] = variants of: B1; experiment: Kd (Tite-Seq); conditions: with fluorescein; format: scFv 4-4-20, heavy + light
[2] = variants of: B1; experiment: yeast surface expression (ratio to wild type); higher = more expressed; conditions: format: scFv 4-4-20, heavy + light

Kd [1] [µM]	Variant	yeast surface expression [2]
≥ 10	chain 1 Y32E V37Y	0.806
≥ 10	chain 1 Y32M W36D	0.63
≥ 10	chain 1 Y32M W36M	0.672
≥ 10	chain 1 Y32L M34A	0.634
≥ 10	chain 1 Y32C W36R	0.506
≥ 10	chain 1 Y32I W33T N35A	0.824
≥ 10	chain 1 Y32K V37T	0.623
≥ 10	chain 1 Y32K V37S	0.852
≥ 10	chain 1 Y32K V37R	1.18
≥ 10	chain 1 Y32N M34V	0.683
≥ 10	chain 1 Y32N M34G	0.608
0.021	chain 1 Y32N M34E	–
0.216	chain 1 Y32E W36Q	0.493
≥ 10	chain 1 Y32E W36H	0.342
≥ 10	chain 1 Y32E W36N	1.09
≥ 10	chain 1 Y32A M34S	0.769
0.0434	chain 1 Y32A M34V	0.941
≥ 10	chain 1 Y32K W33I	0.763
≥ 10	chain 1 Y32K W33E	0.552
≥ 10	chain 1 Y32K W33T	0.694
0.205	chain 1 Y32A V37Y	1.23
≥ 10	chain 1 Y32A W33I M34T	0.444
0.0221	chain 1 Y32F M34L	0.781
≥ 10	chain 1 Y32F M34Q	0.502
0.00561	chain 1 Y32F M34F	0.862
≥ 10	chain 1 Y32E W33T	0.889
≥ 10	chain 1 Y32E W33K	0.742
≥ 10	chain 1 Y32M W33D V37C	0.778

Kd [1] [µM]	Variant	yeast surface expression [2]
≥ 10	chain 1 Y32I N35P	0.0981
≥ 10	chain 1 Y32M V37T	0.538
≥ 10	chain 1 Y32H N35E	0.518
≥ 10	chain 1 Y32H N35T	0.813
≥ 10	chain 1 Y32H N35Q	0.811
≥ 10	chain 1 Y32H N35D	0.772
0.0113	chain 1 Y32N V37G	2.76
≥ 10	chain 1 Y32K M34F W36H	0.381
≥ 10	chain 1 Y32D W33V	0.594
≥ 10	chain 1 Y32D W33E	0.525
≥ 10	chain 1 Y32A W33S V37G	0.472
≥ 10	chain 1 Y32G N35V	0.513
≤ 0.000316	chain 1 W108Y	0.963
≤ 0.000316	chain 1 W108V	0.831
≥ 10	chain 1 Y32D N35Y	0.498
≥ 10	chain 1 Y32L V37R	0.0981
≥ 10	chain 1 Y32D M34Y	0.756
≥ 10	chain 1 Y32F W33Y	0.757
≥ 10	chain 1 Y32F W33Q	1.23
≥ 10	chain 1 Y32C N35M	0.536
≥ 10	chain 1 Y32C M34K	1.04
≥ 10	chain 1 Y32C M34T	0.664
≥ 10	chain 1 Y32C M34P	0.562
≥ 10	chain 1 Y32C M34F	0.872
≥ 10	chain 1 Y32C M34Y	0.843
0.676	chain 1 Y32H W36F	0.839
≥ 10	chain 1 Y32G V37P	0.972

Second part, the variant before the results:

Variant	Kd [1] [µM]	yeast surface expression [2]
chain 1 W33S W36L	≥ 10	0.535
chain 1 W33S W36I	≥ 10	0.619
chain 1 W33S W36D	≥ 10	0.562
chain 1 W33T N35D V37W	≥ 10	0.582
chain 1 W108I G109F	0.02	0.186
chain 1 W36Q V37T	≥ 10	0.396
chain 1 W33T W36Y	≥ 10	0.79
chain 1 W33P N35Y	0.205	0.393
chain 1 W33Y N35R	≥ 10	0.524
chain 1 W33R N35Y	≥ 10	0.794
chain 1 W108Q G109E	≥ 10	0.459
chain 1 W108Q G109Q	≥ 10	0.278
chain 1 W36L V37Q	≥ 10	0.537
chain 1 W33T M34W	≥ 10	0.967
chain 1 W108L G109R	≥ 10	0.296
chain 1 W108L G109I	≥ 10	0.203
chain 1 W33R W36Y	≥ 10	0.561
chain 1 W108N G109N	≥ 10	0.335
chain 1 W108N G109P	≥ 10	0.396
chain 1 W108G G109V	≥ 10	0.228
chain 1 W108S G109N	≥ 10	0.413

Variant	Kd [1] [µM]	yeast surface expression [2]
chain 1 W108S G109R	≥ 10	0.307
chain 1 W108S G109S	5.96	0.37
chain 1 W108E G109T	≥ 10	0.269
chain 1 W108E G109V	≥ 10	0.33
chain 1 W108E G109P	≥ 10	0.356
chain 1 W108E G109K	≥ 10	0.403
chain 1 W108L	≤ 0.000316	0.827
chain 1 W108S	0.0158	0.51
chain 1 W108F	≤ 0.000316	0.644
chain 1 W108R	≥ 10	0.455
chain 1 W108G	0.102	0.48
chain 1 W108D	≥ 10	0.345
chain 1 W108A	0.00209	0.588
chain 1 W108C	0.000646	0.717
chain 1 W108T	0.000399	0.775
chain 1 W108M	≤ 0.000316	1
chain 1 W108E	≥ 10	0.463
chain 1 W108P	0.00272	0.625
chain 1 W108H	0.00468	0.333
chain 1 W108Q	0.0233	0.506
chain 1 W108I	≤ 0.000316	0.882

Variant	Kd [1] [µM]	yeast surface expression [2]
chain 1 W108N	0.031	0.468
chain 1 W108K	0.0221	0.504
chain 1 W33P M34H	≥ 10	0.508
chain 1 W36S V37D	≥ 10	1.34
chain 1 W33N W36R	≥ 10	0.764
chain 1 W33Q W36S	7.33	0.839
chain 1 W33Q W36K	≥ 10	0.466
chain 1 W33Q W36T	≥ 10	0.706
chain 1 W33Q W36V	≥ 10	0.361
chain 1 W33T M34S V37E	≥ 10	0.787
chain 1 W36P V37Y	≥ 10	0.75
chain 1 W33V V37S	≥ 10	0.535
chain 1 W33V V37F	≥ 10	0.82
chain 1 W36F V37C	0.000454	0.75
chain 1 W36F V37N	0.00746	0.509
chain 1 W36F V37Y	≥ 10	0.738
chain 1 W36Y V37I	0.0205	0.75
chain 1 W33N V37N	≥ 10	0.652
chain 1 W33N V37Q	≥ 10	0.415
